*1 amine or outer side, *2 acyl side, *3 side chain or, on linkers, in order; H or OH if unused. Where no end group is shown, it is not given here. Side-chain parts run from the residue outwards. [ ]: non-standard residue; d: D form. The star is where a group is joined. Decanoyl(10-(4-HOOC-PhO)) = O=C(O)c1ccc(OCCCCCCCCCC(=O)*)cc1; αMePhe(2-F) = C[C@](N)(Cc1ccccc1F)C(=O)O; γGlu = O=C(O)[C@H](CCC(=O)[*:2])N[*:1]; αMeY = C[C@](N)(Cc1ccc(O)cc1)C(=O)O; αMeL = CC(C)C[C@](C)(N)C(=O)O; Nle = CCCC[C@H](N)C(=O)O; Orn = NCCC[C@H](N)C(=O)O; AEEA = NCCOCCOCC(=O)O; Aib = CC(C)(N)C(=O)O
Assays:
Assay in all cases: cell-based or functional assay
[1] = target: human GLP-1 receptor (human, UniProt P43220 24-463)
[2] = target: T1, human GIP receptor (human, UniProt P48546 22-466)
T1 sequence (looked up): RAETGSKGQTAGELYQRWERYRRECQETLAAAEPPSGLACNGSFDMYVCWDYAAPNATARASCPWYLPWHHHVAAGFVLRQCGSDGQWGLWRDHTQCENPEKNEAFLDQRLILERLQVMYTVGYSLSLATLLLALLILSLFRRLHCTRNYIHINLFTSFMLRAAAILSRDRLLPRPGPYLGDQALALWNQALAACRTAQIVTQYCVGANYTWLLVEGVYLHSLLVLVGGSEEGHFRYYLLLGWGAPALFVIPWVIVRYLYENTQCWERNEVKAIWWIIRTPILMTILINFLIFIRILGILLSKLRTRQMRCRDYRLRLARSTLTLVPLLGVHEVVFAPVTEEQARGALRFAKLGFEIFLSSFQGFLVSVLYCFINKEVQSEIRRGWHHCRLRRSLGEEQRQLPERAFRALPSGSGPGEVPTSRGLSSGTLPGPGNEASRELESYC

[3] = target: human glucagon receptor (human, UniProt P47871 26-477)

B1: Example 321 (peptide)
peptide: YXEGTXTSDXSIXLDXKAQXKFIXXLIEGGPSSGAPPPS
modifications: Aib2, αMeF(2F)6, Nle10, αMeL13, Orn16, Aib20, D-Glu24, αMeY25; K17 and K21: AEEA2-(γ-Glu)-(10-(4-carboxyphenoxy)decanoyl); C-terminal NH2
cAMP EC50 [1]: 0.295 nM | cAMP EC50 [2]: 0.0107 nM | cAMP EC50 [3]: > 9950 nM

B2: Example 323 (peptide)
peptide: YXEGTXTSDXSIXLDXKAQXKFIXXLIEGGPSSGAPPPS
modifications: Aib2, αMeF(2F)6, hTyr10, αMeL13, Orn16, Aib20, D-Glu24, αMeY25; K17 and K21: AEEA2-(γ-Glu)-CO-(CH2)10-CH3; C-terminal NH2
cAMP EC50 [1]: 0.203 nM | cAMP EC50 [2]: 0.00793 nM | cAMP EC50 [3]: > 9950 nM

B3: Example 327 (peptide)
peptide: YXEGTXTSDXSIXLDXKAQXEFIXXLIKGGPSSGAPPPS
modifications: Aib2, αMeF(2F)6, hTyr10, αMeL13, Orn16, Aib20, D-Glu24, αMeY25; K17 and K28: AEEA2-(γ-Glu)-(10-(4-carboxyphenoxy)decanoyl); C-terminal NH2
cAMP EC50 [1]: 0.211 nM | cAMP EC50 [2]: 0.018 nM | cAMP EC50 [3]: > 9950 nM

B4: Example 328 (peptide)
peptide: YXEGTXTSDXSIXLDXKAQXEFIXXLIKGGPSSGAPPPS
modifications: Aib2, αMeF(2F)6, Nle10, αMeL13, Orn16, Aib20, D-Glu24, αMeY25; K17 and K28: AEEA2-(γ-Glu)-(10-(4-carboxyphenoxy)decanoyl); C-terminal NH2
cAMP EC50 [1]: 0.405 nM | cAMP EC50 [2]: 0.00973 nM | cAMP EC50 [3]: > 9950 nM

B5: Example 332 (peptide)
peptide: YXEGTXTSDXSIXLDXIAQXKFIXXLIKGGPSSGAPPPS
modifications: Aib2, αMeF(2F)6, hTyr10, αMeL13, Orn16, Aib20, D-Glu24, αMeY25; K21 and K28: AEEA2-(γ-Glu)-(10-(4-carboxyphenoxy)decanoyl); C-terminal NH2
cAMP EC50 [1]: 0.263 nM | cAMP EC50 [2]: 0.0109 nM | cAMP EC50 [3]: > 9950 nM

B6: Example 333 (peptide)
peptide: Y[Aib]EGT[αMePhe(2-F)]TSD[Nle]SI[αMeL]LD[Orn]IAQ[Aib]K([AEEA-AEEA-γGlu-Decanoyl(10-(4-HOOC-PhO))])FI[dE][αMeY]LIK([AEEA-AEEA-γGlu-Decanoyl(10-(4-HOOC-PhO))])GGPSSGAPPPS-NH2
modifications: N-terminus assumed
SMILES: CCCC[C@H](NC(=O)[C@H](CC(=O)O)NC(=O)[C@H](CO)NC(=O)[C@@H](NC(=O)[C@](C)(Cc1ccccc1F)NC(=O)[C@@H](NC(=O)CNC(=O)[C@H](CCC(=O)O)NC(=O)C(C)(C)NC(=O)[C@@H](N)Cc1ccc(O)cc1)[C@@H](C)O)[C@@H](C)O)C(=O)N[C@@H](CO)C(=O)N[C@H](C(=O)N[C@@](C)(CC(C)C)C(=O)N[C@@H](CC(C)C)C(=O)N[C@@H](CC(=O)O)C(=O)N[C@@H](CCCN)C(=O)N[C@H](C(=O)N[C@@H](C)C(=O)N[C@@H](CCC(N)=O)C(=O)NC(C)(C)C(=O)N[C@@H](CCCCNC(=O)COCCOCCNC(=O)COCCOCCNC(=O)CC[C@H](NC(=O)CCCCCCCCCOc1ccc(C(=O)O)cc1)C(=O)O)C(=O)N[C@@H](Cc1ccccc1)C(=O)N[C@H](C(=O)N[C@H](CCC(=O)O)C(=O)N[C@@](C)(Cc1ccc(O)cc1)C(=O)N[C@@H](CC(C)C)C(=O)N[C@H](C(=O)N[C@@H](CCCCNC(=O)COCCOCCNC(=O)COCCOCCNC(=O)CC[C@H](NC(=O)CCCCCCCCCOc1ccc(C(=O)O)cc1)C(=O)O)C(=O)NCC(=O)NCC(=O)N1CCC[C@H]1C(=O)N[C@@H](CO)C(=O)N[C@@H](CO)C(=O)NCC(=O)N[C@@H](C)C(=O)N1CCC[C@H]1C(=O)N1CCC[C@H]1C(=O)N1CCC[C@H]1C(=O)N[C@@H](CO)C(N)=O)[C@@H](C)CC)[C@@H](C)CC)[C@@H](C)CC)[C@@H](C)CC
cAMP EC50 [1]: 0.388 nM | cAMP EC50 [2]: 0.0062 nM | cAMP EC50 [3]: > 9950 nM

B7: Example 335 (peptide)
peptide: YXEGTXTSDXSIXLDXKAQXEFIXXLIKGGPSSGAPPPS
modifications: Aib2, αMeF(2F)6, hTyr10, αMeL13, Orn16, Aib20, D-Glu24, αMeY25; K17 and K28: AEEA2-(γ-Glu)-CO-(CH2)10-CH3; C-terminal NH2
cAMP EC50 [1]: 0.175 nM | cAMP EC50 [2]: 0.00871 nM | cAMP EC50 [3]: > 9950 nM

From US20230265151A1, “GIP/GLP1 CO-AGONIST COMPOUNDS” (priority 2020, published 2023)
